Measured values as given in the supplement of paper PMC10567573.
± gives the standard deviation.

Experiment: protein stability index of a GFP-peptide fusion (GPS, HEK-293T) (PSI 1-6); higher = more stable
Settings: c terminus: a fixed tail appended
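Also: 24-mer peptide tiles fused after GFP, lentivirally expressed, FACS-sorted into six equal bins by GFP/DsRed ratio, decoded by Illumina sequencing, PSI is the read-weighted mean bin number.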

Row | Sequence | protein stability index (treatment: DMSO) | protein stability index (treatment: MLN4924 1 uM, 8 h)
1 | MHSFPPLLLLLFWGVVSHSFPATL [MMP1] | 3.14 ± 0.31 | 3.12 ± 0.25
2 | IDVSKREPPPVKQELPPYNGFGLV [EFHC1] | 3 ± 0.095 | 3.03 ± 0.27
3 | CPRIAPADSGRYRASPTRTAPLPM [ELOA2] | 3.63 ± 0.17 | 3.76 ± 0.41
4 | RFGDRMFYKDWWNSTSYSNYYRTW [SOAT1] | 1.92 ± 0.23 | 2.04 ± 0.34
5 | LPLETARESPSFKLEPMETERSPG [ZNF263] | 5.24 ± 0.13 | 5.36 ± 0.13
6 | NLIKSENYGKILVEKNEHCIENNI [R3HDM1] | 3.5 ± 0.5 | 3.49 ± 0.65
7 | LHPDRDPGNPSLHSRFVELSEAYR [DNAJC4] | 3.37 ± 0.22 | 3.51 ± 0.19
8 | WEYPGSQGSPAVDKERFTTLVQDL [CHIT1] | 3.9 ± 0.25 | 3.89 ± 0.19
9 | APEYFEKNEPYLEAACNDVDRWPA [DENND6A] | 4.59 ± 0.29 | 4.47 ± 0.38
10 | HSAAYRADPLRVSSRDKLTEMAAS [FUNDC2] | 3.92 ± 0.3 | 4.23 ± 0.22
11 | SEGELGGPSEPGGTHPEDHQGHSD [RHOBTB2] | 5.54 ± 0.32 | 5.49 ± 0.29
12 | PQVLADLGSFESPANSETSDLTLY [PCDHGA10] | 4.19 ± 0.36 | 4.38 ± 0.34
13 | QIVTKKIDLSHVTSKCGSLKNIRH [MAP2] | 2.67 ± 0.039 | 2.71 ± 0.2
14 | LLYDRGTKFGLFTPGSRIESILMS [CPOX] | 2.45 ± 0.46 | 2.14 ± 0.42
15 | SYKDLDVIFGVELPGNEEFQVVKD [TENT5D] | 3.84 ± 0.24 | 3.88 ± 0.099
16 | AQVPDTRWSRVGGQRFYSRVLSPL | 2.41 ± 0.69 | 2.75 ± 0.43
17 | LLTLRNSAQAPPDSISLHQPCNPP [DMRTC1] | 3.62 ± 0.14 | 3.82 ± 0.15
18 | RTTPSRREITGVQAQPGEATSGPP [PALM] | 5.25 ± 0.35 | 5.2 ± 0.093
19 | SAAGPPLSEDDKLQGAASHVPEGF [EHMT1] | 5.31 ± 0.3 | 5.21 ± 0.11
20 | QLRSDVCTPGGTTIYGLHALEQGG [PYCR3] | 3.69 ± 0.23 | 3.61 ± 0.51
21 | SYHDGYGEALGRDHSEHLSGSSYR [RBMY1A1] | 4 ± 0.19 | 4.12 ± 0.35
22 | TKFQELQLAAGRHGDDLKNTKNEI [KRT71] | 4.12 ± 0.39 | 4.28 ± 0.13
23 | VELLKNLTKYPTDRDSIWKCLKFL [INTS4] | 2.63 ± 0.28 | 2.08 ± 0.22

Row | Sequence | protein stability index (treatment: DMSO) | protein stability index (treatment: MLN4924 1 uM, 8 h)
24 | NLPCNKFKNRLVNIMPYESTRVCL [PTPRD] | 2.15 ± 0.23 | 2.65 ± 0.96
25 | KHFCPRTPVILVGCQLDLRYADLE [RHOBTB1] | 2.35 ± 0.49 | 2.19 ± 0.33
26 | HRLRVQQAALRAARLRHQELFRLR [NOP53] | 2.88 ± 0.23 | 2.87 ± 0.4
27 | WLYCYDPVMDVWARKQDMNTKRAI [KLHL14] | 2.07 ± 0.28 | 2.53 ± 0.55
28 | VPNAKKLRRKEQLWEKLAKQGELP [NOP53] | 3.35 ± 0.33 | 3.51 ± 0.39
29 | VFRVSSDKLALCHLELTRKLQDLI [FCHO1] | 2.28 ± 0.46 | 2.03 ± 0.61
30 | SVGFQSNEAASLASTGVGVVKVIS [SLC2A12] | 3.68 ± 0.64 | 3.6 ± 0.41
31 | FTFLSAKCLQGNADGDGGGGQCCR [PCDHGC5] | 2.97 ± 0.18 | 3.29 ± 0.26
32 | DRQYDSRGRFGELLLLLPTLQSIT [HNF4A] | 2.35 ± 0.47 | 2.17 ± 0.21
33 | AELVLLTLGQAWQGYVSDIRRFLS [DFFB] | 2.12 ± 0.17 | 2.06 ± 0.21
34 | CPTPARLATTEKKTEQQRRREKAV [NOP53] | 5.19 ± 0.27 | 5.28 ± 0.24
35 | LYVRRVFIMDSCDELIPEYLNFIR [HSP90AB1] | 2.37 ± 0.58 | 2.68 ± 0.86
36 | SELPPPMERTGGIGDSRPPSFHPH [DVL3] | 4.55 ± 0.25 | 4.61 ± 0.09
37 | ENGSVSSSETPPPPPPPNEINPPP [EIF5] | 5.32 ± 0.18 | 5.35 ± 0.17
38 | GNQLQLNQHCLDTAFNFFKMAVSR [BRF1] | 2.25 ± 0.36 | 1.96 ± 0.28
39 | FYFENALSKSNKPIHTIILNPHVH [CAMK2D] | 2.01 ± 0.58 | 2.42 ± 0.044
40 | QLDSRYWRITNAKGDVEEVQGPGV [FBXO3] | 4.14 ± 0.22 | 4.22 ± 0.14
41 | PGPAPGSPGELEEDLLLPGACPGA [WEE1] | 5.24 ± 0.52 | 5.49 ± 0.13
42 | PPGDIMFLLVQRFGELMRKLWNPR [USP39] | 2.77 ± 0.31 | 2.77 ± 0.17
43 | TPESTKPGPVCQPPVSQSRSLFSS [ANKRD40] | 4.46 ± 0.19 | 4.21 ± 0.21
44 | NSASDPSLKDGLSDSDSELSSSEG [PSD2] | 5.69 ± 0.14 | 5.61 ± 0.19
45 | FAGGFVDFGACDGGLLTGNEKITM [KRT13] | 2.73 ± 0.32 | 2.56 ± 0.079
46 | EEVSEVESFILDQDDLENPMLETA [ANKRD17] | 5.69 ± 0.23 | 5.16 ± 0.57

Row | Sequence | protein stability index (treatment: DMSO) | protein stability index (treatment: MLN4924 1 uM, 8 h)
47 | HDTEIRKVHMKDVMSALWVSGLDS [GAN] | 2.78 ± 0.29 | 2.75 ± 0.4
48 | GPGDGPPEIAQNFSAPDPPRPRPV [SMTNL2] | 5.05 ± 0.19 | 5.03 ± 0.24
49 | DLRADDLPGPAFESYESMELACPA [KLHDC2] | 4.84 ± 0.11 | 4.72 ± 0.34
50 | KATASEAVDCKWYIRAPPRSKIYL [NETO1] | 2.23 ± 0.54 | 2.25 ± 0.32
51 | AGGEENMTETDAFYKREMFDPAEK [CASP6] | 5.13 ± 0.32 | 5.37 ± 0.3
52 | ALVKEREKQLAKKEQSKELQMKLE [FAM50A] | 4.87 ± 0.076 | 4.64 ± 0.37
53 | LSRKVAKLVHFLLLKYRAREPVTK [MAGEA6] | 2.7 ± 0.37 | 2.43 ± 0.67
54 | SNMCINNTLVCNGLQNCVYPWDEN [NETO1] | 3.29 ± 0.082 | 3.36 ± 0.44
55 | ATKKLGFKHPVIGVHVRRTDKVGT [FUT8] | 3.12 ± 0.091 | 3.15 ± 0.21
56 | NHCMLSPSSSGHLADSDTLSSAEE [C18orf25] | 5.36 ± 0.19 | 5.4 ± 0.098
57 | KAEPRLPDRVYIHPDSPATGAHWM [TBX6] | 3.09 ± 0.12 | 3.23 ± 0.35
58 | NGRHKIPESQFPEFSTSLFSGSLE [SRPK2] | 3.66 ± 0.22 | 3.8 ± 0.19
59 | PGAPPGRDLASVPPELTASRQSFR [DVL3] | 4.7 ± 0.23 | 4.84 ± 0.12
60 | MMDLRNTPAKSLDKFIEDYLLPDT [OAS1] | 3.04 ± 0.16 | 3.15 ± 0.28
61 | TSLFLGNGVLLCFYSQEWYARQHC [SOAT1] | 2.9 ± 0.8 | 2.91 ± 0.32
62 | LFPNAKKEHVPTWLQNTHVYSWPK [TRAF3IP2] | 2.8 ± 0.33 | 2.81 ± 0.19
63 | HFSFNVKFYPPDPAQLSEDITRYY [EPB41L3] | 2.21 ± 0.24 | 2.12 ± 0.12
64 | NDLDRIAQPNYIPTQQDVLRTRVK [GNAI1] | 4.81 ± 0.13 | 4.92 ± 0.15
65 | LPNHRAAKRLWKVCVEHHTFFRLL [EPB41L3] | 2.42 ± 0.34 | 2.36 ± 0.13
66 | SSPRGMVRVCDLLLKKKPPQQQHH [ANKRD17] | 3.2 ± 0.23 | 3.28 ± 0.13
67 | LVSDDPRCRLSLDDRVLSSLVRDT [POP5] | 3.44 ± 0.24 | 3.68 ± 0.12
68 | QYTVPGTEGVTQLKLTVVEDVTVG [ZFYVE21] | 3.86 ± 0.19 | 3.98 ± 0.41
69 | VNRTTRTNSTPLRAACFDGHLEVV [FEM1A] | 2.9 ± 0.35 | 2.74 ± 0.34

Row | Sequence | protein stability index (treatment: DMSO) | protein stability index (treatment: MLN4924 1 uM, 8 h)
70 | QPRKGGADWLGLKDEDLDLFPASP [FBF1] | 4.71 ± 0.1 | 4.79 ± 0.17
71 | DYNQAEMKQRDNCKIRIQRQLEIM [STX11] | 2.9 ± 0.19 | 3.15 ± 0.31
72 | DSSLHWSSSYSPETFRQQFRQFGY [ZNF396] | 2.66 ± 0.31 | 2.56 ± 0.15
73 | TQSDLYKKTQETLSQAGQKTSAAL [TPD52L2] | 4.88 ± 0.067 | 4.93 ± 0.21
74 | KLKNDTENHQPVSLSDLEIQASAG [ZNF75A] | 5.21 ± 0.32 | 5.15 ± 0.14
75 | IINAKSNDGWTPLHVAAHYGRDSF [ASB7] | 2.46 ± 0.24 | 2.41 ± 0.42
76 | LQAQKEELQSLMHQPKGLEEENAQ [PBXIP1] | 5.64 ± 0.29 | 5.45 ± 0.27
77 | KDPKAGDSKSGGSGSESDHTTRSS [DVL3] | 5.3 ± 0.38 | 5.53 ± 0.23
78 | FREVYVGKETMCTVDGLHFNSTYN [TRIM9] | 2.23 ± 0.098 | 2.4 ± 0.28
79 | QEDAPMIEPLVPEEKMETKTESSG [EPB41L3] | 5.69 ± 0.17 | 5.63 ± 0.13
80 | ETAPTTVDRTHALMKKIGQCPMRV [CRYL1] | 3.59 ± 0.14 | 3.68 ± 0.2
81 | LAELQEQLKAVHEQLAALSQAPVN [BRD3] | 4.2 ± 0.3 | 4.24 ± 0.43
82 | CYMATTKSQTACLPFVLAAAVSRK [EHMT1] | 2.14 ± 0.3 | 2.15 ± 0.15
83 | GYREDNIPQLEDVSNFLKERTGFS [TPH1] | 3.75 ± 0.24 | 3.99 ± 0.42
84 | PGQEAQRVVCGIDSSMILTVPGQA [NEK8] | 3.78 ± 0.23 | 3.81 ± 0.22
85 | LGLETLKITDFQLHASTVKRYGLG [CPXM2] | 2.61 ± 0.52 | 2.46 ± 0.12
86 | PDPDAWLRALGELLRRDLGVGTSM [FANCE] | 1.86 ± 0.28 | 1.9 ± 0.2
87 | VLRAEHRGFQEENKALWENNKLKL [CBY2] | 3.83 ± 0.45 | 3.89 ± 0.28
88 | YFYMSCLVKHKRIHSREKRGDSVK [ZNF649] | 1.73 ± 0.16 | 2.38 ± 0.55
89 | QLLTLRELEMIGFIENNVSKLSLL [TRIP13] | 2.51 ± 0.28 | 2.66 ± 0.52
